Assay: yeast display, Sf9 membrane polyspecificity reagent, FACS + sequencing; frameworks hold sequencing errors
In short: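 Galactose-induced (36–48 hours) yeast carrying a synthetic nanobody display library were exposed to 10% biotinylated, detergent-solubilized Sf9 membrane reagent at 4 °C for 1 hour. FACS followed streptavidin microbead enrichment, using low and high (top ~1%) gates for expression (anti-HA) and reagent binding (streptavidin). Colony PCR, MiSeq 2 × 250 sequencing and CDR-length filtering followed. Labels for polyreactivity reflect the gate of origin.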

Sequence	polyreactivity (PSR sort gate)
QVQLVESGGGLVQAGGSLRLTCAASASIFGSAMGWSRQAPGNEMELVASTTDADSVKGRFTISRDNAKNTVYLQMNSLKPEDTSVYYCAADDWDTVEMEYWGQVTQVTVSS	low polyreactivity
QVQLVESGGGLVQAGGSLRLTCAASASTFKPYAMGWDRQAPGKERELVAAINGSGGDTYYADSVKGRFTISRDNAKTTVYLQMNSLKPEDTAVYYCAAQWGYYNYWYGYWGQGSQVTVSS	low polyreactivity
QVQLVESGGGLVQAGGSLRLTCAASGAIFDSYAMGWYRQAPGKEWQLVASISYRGGSTYYADSVKGRFTISRDHAKNTVYLQKNSLKPEDTAVYYCAATPGYHYRSWRYYYWGQGTLVTVSS	high polyreactivity
QVQLVESGGGLVQAGGSLRLTCAASGFIFKANAMGWYRQAPGKERELVASITFGGDSTYYADSVKGRFTISRDNAKNTVYLHMNSLKPEDTAVYYCNTRRRSYRTYYYWGQGTQVTVLS	low polyreactivity
QVQLVESGGGLVQAGGSLRLTCAASGFIFYNNAMGWYRQAPGKERELVASIRWSGASTYYADSVKGRFTISRDNAKNTVYLQMNSLKPEDTAVYYCAARQSRLNSYFSHRFWRYDYWGQGTQVTVSS	high polyreactivity
QVQLVESGGGLVQAGGSLRLTCAASGFIFYSYAMGWYRQAPGKERELVAAISTSGGSTYYADSVKGRFTISRDNAKNTVYLQMNSLKPEDTAVYYCAVGRKFGRYRVPFVVPYEYWGQGTQVTVSS	high polyreactivity
QVQLVESGGGLVQAGGSLRLTCAASGFTFARYAMGWYRQAPGKERELVAAISSNDNTSYADSVKGRFTISRDNAKNTVYLQMNSLKPEDTAVYDCAKKRYHWYGRYYYWGQGTQLTVSS	high polyreactivity
QVQLVESGGGLVQAGGSLRLTCAASGFTFAYKTMGWYRQAPGKERELVAAISWSGGRTYYADSVKGRFTISRDNAKNTVYLQMNSLKPEHTAVYYCAAEFWNQYGAYDYWGQGTQVTLSS	low polyreactivity
QVQLVESGGGLVQAGGSLRLTCAASGFTFGPYDMGWSRQAPGKERELVAAITDSSGSTHYADSVKGRFTISRDNAKNTVYLQMNSLKPEDTAVYYCAAQLKSHSTYGHDYWGQGTQVTVSS	low polyreactivity
QVQLVESGGGLVQAGGSLRLTCAASGFTFGRYTMGWYRQAPGKERELVAAISGRGSRTYYADSVKGRFTISRDNAKNTVYLQMSSLKPVDTAVYYCAADVNVRSDMDYWGQGTQVTVSS	high polyreactivity
QVQLVESGGGLVQAGGSLRLTCAASGFTFGSYAMGWNRQAPGKERELVAVITRSGRTNYADSVKGRFTISRDNAKNTVYLQMNSLKPEDTAVYYCNADDVDDEVSPDLTEMDYWGQGTQVTVSS	low polyreactivity
QVQLVESGGGLVQAGGSLRLTCAASGFTFPYYAMGWYRQAPGKERELVAAIDWTGGSTYYADSVKGRFTISRDNAKNTVYLQMNSLKPEDTAVYYCNRELTSPRRWHVSRAYDYWGQGTQVTVSS	low polyreactivity
QVQLVESGGGLVQAGGSLRLTCAASGFTFRYYTMGWYRQAPGTERELVARISNRGGSTYYADSVKGRFTISRDNAKNTVYLQMNSLKPEDTAVFYCAAARRYYTYYREDYYYWGQGTQVTVSS	high polyreactivity
QVQLVESGGGLVQAGGSLRLTCAASGFTFSPNAMGWYRQAPGKERELVAAIDWSGDRTYYADSVKGRFTISRDNAKNTVYLQMNSLKPEDTAVYYCNVVGRSPGDYSYYYSGQGTQVTVSS	low polyreactivity
QVQLVESGGGLVQAGGSLRLTCAASGGIFGINAMRWYRQAPGKERELVAAITSGDSTNYADSVKGRFTISRDNAKNTVYLQMNSLKPEDTAVYYCNADPDTYVSTITHDSWGQGTQVTVSS	low polyreactivity
QVQLVESGGGLVQAGGSLRLTCAASGGILGYYAMGWYRQEQGKERELVAAISSSVGRTYYADSVKGRFTISRDNAKNSVFLQMNSLKPEDTAVYYCNKDIGRSYNYWGQGTQVTVSS	high polyreactivity
QVQLVESGGGLVQAGGSLRLTCAASGIIFDTNAMGWYRQAPGKERELVATITQRGGTTYYADSVKGRFTISRDNAKNTVYLQMNSLKPEDTAVYYCNAGPVRLPYDSWGQGTQVTVSS	low polyreactivity
QVQLVESGGGLVQAGGSLRLTCAASGITFGVYAMGGYRQAPGKERELVAAITRGGRTYYADSVKGRFTISRDNAKNTVYLQMNSLKPVDTAVYYCAAGFWWSSYGYWGQGTQVTVSS	high polyreactivity
QVQLVESGGGLVQAGGSLRLTCAASGITFTIYAMGWYRLATGKERELVAAISWSGTSTYYADSVKGRFTISRDNAKNTVYLKMNSLKQEDTAVYYCAADYTTSQGDSELDYWGQGTQVTVSS	low polyreactivity
QVQLVESGGGLVQAGGSLRLTCAASGIYFTDYAMGWYRQAPGKERELVAAISGIGSTTYYADSVKGRFTISRDNAKNTVYLQMNSLKPEDTAVYYCNALLAYTYWYDYWGQGTQVSVSS	high polyreactivity
QVQLVESGGGLVQAGGSLRLTCAASGLIFGVYAMGWYRQAPGKEMELVAGISWRGSSTYYADSVKGRFTISRDYAKNTVYLQMNSLIPEDTAVYYCADVRRPSRHAYGGTAVYYWGQGTQVTVSS	high polyreactivity

Sequence	polyreactivity (PSR sort gate)
QVQLVESGGGLVQAGGSLRLTCAASGLTFEYYAMGWYRQAPGKERELVARISKSGVGTNYADSVKGRFTISRDHAKNTVYLQMNSLKPEDNAVYSCAARKYHYGYGYWGQGTQVTVSS	high polyreactivity
QVQLVESGGGLVQAGGSLRLTCAASGNTFYPYAMGWYRQGPGKERELVAAITSSGGSTYYADSVKGRFTISRDNANNTVYLQMNSLKPEDTAVYYCAADPDWYSPFKYVYWGQGTQVTVSS	low polyreactivity
QVQLVESGGGLVQAGGSLRLTCAASGRIFAHYAMGWYRPAPGKERELVAAISSGGSTYYADSVKGRFTISRDNAKNTVYLLMNSLKPEDTAVYYCNKRPVRRKYDYWGQGTQVTVSS	low polyreactivity
QVQLVESGGGLVQAGGSLRLTCAASGRIFAYYAMGWSRQAPGKERELVAAISSGGTTNYADSVKGRFTISRDNAKNTVYLQLTSLKPEDTAVYYCNADGWRRSRQYYYWGQGTQVTVSS	low polyreactivity
QVQLVESGGGLVQAGGSLRLTCAASGRIFGLYAMGWSRQAPGKERELVAAISVISTGTYYADSVKGRFTISRDNAKNTVYLQMNSLKPEDTAVYYCNADSGQYTPPESDYWGQGTQVTVSS	low polyreactivity
QVQLVESGGGLVQAGGSLRLTCAASGRIFGRYAMGWYRQAPAKERELVATITYSGGTTYYADSVKGRFTISRDNAKNTVYLQMNSLKPEDTAVYYCNARSGRQLARYGYWGQGTQVTVSS	high polyreactivity
QVQLVESGGGLVQAGGSLRLTCAASGRIFGWYAMGWYRQAPGKEREFVAAITVTGGSTYYADSVKGRFTISRDNAKNTVYLQMNSLKPEDTAVYYCAADRWYTRTGFDYWGQGTQVTVSS	low polyreactivity
QVQLVESGGGLVQAGGSLRLTCAASGRIFIGNAMGWYRQAPGKERELVAAISSGGSTDYADSVKGRFTISRDNAKNTVYLQMNSLKPEDTAVYYCNADYEGYYDYGYWGQGTQVTVSS	low polyreactivity
QVQLVESGGGLVQAGGSLRLTCAASGRIFIYYAMGWYRQAPGKERELVAAISWGGGRTYYADSVKGRFTISRDNAKNTVYLQINSLKPEDTAVYYCAAGVYTGQHEYDYWGQGTQVTVSS	low polyreactivity
QVQLVESGGGLVQAGGSLRLTCAASGRIFRKYAMGWYRQAPGKERELVAAISNGGSTNYADSVKGRFTISRDNAKNTVYLQMNSLKPEDTAVYYCAASYRIYRGDSTGFGYWGQGTQVTVSS	high polyreactivity
QVQLVESGGGLVQAGGSLRLTCAASGRIFSRNTMGWYRQAPGKERELVATISWSGSRTYYADSVKGRFTISRDNAKNTVYLQMNSLKPEDTAVYYCAAVVPLSRSYDYYYWGQGTQVTVSS	high polyreactivity
QVQLVESGGGLVQAGGSLRLTCAASGRIFTVYAMGWYRQAPGKERELVAAIDFSDGTTYYADSVKGRFTISRDNAKNTVYLQMNSLKPEDTAVYYCAAEGGSALDDDYWGQGTQVTVSS	high polyreactivity
QVQLVESGGGLVQAGGSLRLTCAASGRIFYKYVMGWYRQAPGKERELVATITSGGSTYYADSVKGRFTISRDNAKNTVYLHMNSLKPEDTAVYYCAARKYYSRAYDYWGQGTQVTVSS	high polyreactivity
QVQLVESGGGLVQAGGSLRLTCAASGRIFYNYAMGWYRQAPGKERELLAAISGSGGSTYYADSVKGRFTISRDNAKNSVYLQMNSLKPEDTAVYYCSTSCPQYYSRNFDYWGQGTQVTVSS	low polyreactivity
QVQLVESGGGLVQAGGSLRLTCAASGRILVLNAMGWYRQAPGKERELVADITSGGSTYFADSVKGRFTISRDNAKNTVYLQMNSLKPEDTAVYYCAADWNTYPDYQQSYFVSYEYNYWGQGTQVTVSS	low polyreactivity
QVQLVESGGGLVQAGGSLRLTCAASGRILYSYAMGWYRQEPGKERELVAAISGSGGSTYYADSVKGRFTISRDNSKNTVYLQMNMLKPEDTAVYYCAARDLYRYRPQGLGSSQRYYYWGQGTQVTVSS	high polyreactivity
QVQLVESGGGLVQAGGSLRLTCAASGRISGYNMGWYRQAPGKERELVAGIDYSGGSTYYADSVKGRFTISRDNAKYNVSLQMTSLKPEDTAVYDCNAVYARKYYYSHGYDYWGQGTQVTVSS	high polyreactivity
QVQLVESGGGLVQAGGSLRLTCAASGRISRYYAMGWYRQAPGKERELVATITFSGGSTYYADSVKGRFTISRDNAKNTVYLQMNSLKPEDTAVYYCAKQRGGAYLVPWYGYWGQGTQVTVSS	high polyreactivity
QVQLVESGGGLVQAGGSLRLTCAASGRNFSQNAMGWYRQAPGKERELVAAISVTGGRTYYADSVKGRFTISRDNAKNTVYLQMNSLKPEDTAVYYCAKRTRSPGYYYWGQGTQVTVSS	high polyreactivity
QVQLVESGGGLVQAGGSLRLTCAASGRTFDYNAMGWYIQAPGKERELVAAISQSGGRTYYADSVKGRFTISRDHAKNTVYLQMNSLKPEDTAVYYCAAEAYGNRDYWGQGTQVTVSS	low polyreactivity
